Series [1] addresses T1, CsHMG (Citrus sinensis, UniProt G9I829 1-165). The series can be described thus: EMSA; 0.5 and 1.0 ug protein. The note with it: protein: recombinant; tags: 6xHis; label: 5' 32P (direct EMSA).
The target of series [2] is T2, CsHMGΔNΔC (Citrus sinensis, UniProt G9I829 56-125). Briefly: competition; 1-30x vs poly(U) probe. The note with it: protein: recombinant; label: 5' 32P (direct EMSA).
The next series has as its target CsHMGΔN (Citrus sinensis, UniProt G9I829 56-165). The series can be described thus: EMSA. The note with it: protein: recombinant; label: 5' 32P.
The target of series [3] is T2, CsHMGΔNΔC. Briefly: EMSA. The note with it: protein: recombinant; label: 5' 32P.
For the next series, the target named is CsHMGΔC (Citrus sinensis, UniProt G9I829 1-125). Briefly: EMSA. To be noted: protein: recombinant; label: 5' 32P.
Sequence of CsHMGΔC (G9I829 entry or part of it mutant): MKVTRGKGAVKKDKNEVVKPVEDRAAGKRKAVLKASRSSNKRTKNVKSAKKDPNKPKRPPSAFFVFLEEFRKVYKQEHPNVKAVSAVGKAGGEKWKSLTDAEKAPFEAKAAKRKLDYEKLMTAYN
Another series concerns the target PthA4;CsHMG (Xanthomonas citri;Citrus sinensis, UniProt A0AAI8ETU3;G9I829 1-1163;1-165, |). Briefly: EMSA; ternary complex suggested by higher MW bands; […], pH 7.5 ([…], pH 7.5, 20 min. To be noted: protein: recombinant;recombinant; tags: 6xHis;6xHis; label: 5' 32P.
The target of a further series is PthA4 (Xanthomonas citri, UniProt A0AAI8ETU3 1-1163). Briefly: EMSA; 5 mM Mg2+; […], pH 7.5 ([…], pH 7.5, 20 min. To be noted: protein: recombinant; tags: 6xHis; label: 5' 32P.
The target in another series is PthA4 RD (Xanthomonas citri, UniProt A0AAI8ETU3 289-885). Briefly: EMSA; 5 mM Mg2+; […], pH 7.5 ([…], pH 7.5, 20 min. To be noted: protein: recombinant; label: 5' 32P.
Series [4] deals with T1, CsHMG. The series can be described thus: competition; 1-30x cold poly(U). The note with it: protein: recombinant; tags: 6xHis; label: 5' 32P.

T2 sequence (G9I829 entry or part of it mutant): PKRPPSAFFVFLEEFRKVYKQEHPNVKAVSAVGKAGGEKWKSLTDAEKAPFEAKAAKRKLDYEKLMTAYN
Sequence of CsHMGΔN (G9I829 entry or part of it mutant): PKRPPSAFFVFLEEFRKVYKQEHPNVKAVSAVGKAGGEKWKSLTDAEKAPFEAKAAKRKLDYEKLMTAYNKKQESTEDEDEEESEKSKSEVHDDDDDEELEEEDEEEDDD

As for UUAUUAUUUAUUUAUUUAUU (ssRNA) [AU-rich RNA], the binding result with CsHMG [1] and with CsHMGΔNΔC [2] was “no binding” each time.
Turning to UUUUUUUUUUUUUUUUUUUU (ssRNA) [poly(U) U-20], the binding result with CsHMGΔN, with CsHMGΔNΔC [3], in the series with CsHMGΔC, with PthA4;CsHMG, with PthA4 and with PthA4 RD was “binds” throughout. Also, the binding result in the series with CsHMG [4] is “binds”.
